Values belong to the binder of their own block, whether it stands above or below them.
Target: T1, Bone marrow stromal antigen 1 (BST1), human, on the cell surface (human, UniProt Q10588 33-293)
T1 construct: This is endogenous BST1 on A549, H226 and U937 cells and on primary MDS bone marrow cells; also called ADP-ribosyl cyclase 2; CD157
T1 sequence: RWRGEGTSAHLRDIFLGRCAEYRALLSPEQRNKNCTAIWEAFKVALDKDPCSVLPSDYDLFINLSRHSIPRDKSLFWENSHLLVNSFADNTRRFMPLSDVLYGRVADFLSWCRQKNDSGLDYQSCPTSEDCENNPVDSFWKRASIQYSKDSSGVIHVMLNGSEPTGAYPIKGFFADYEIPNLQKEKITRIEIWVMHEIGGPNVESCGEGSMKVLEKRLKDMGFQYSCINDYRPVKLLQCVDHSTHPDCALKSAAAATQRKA
Experiment: flow cytometry on BST1-expressing H226 and A549 cells, PE-labelled secondary antibody, geometric mean fluorescence (PE GMFI); antibody concentration not given
Experimental: The specificity of antibodies against the BST1 selected in Example 2 was tested by flow cytometry. To test the ability of the antibodies to bind to the cell surface BST1 protein, the antibodies were incubated with the BST1-expressing cells, A549 and H226, from human lung adenocarcinoma and human lung squamous carcinoma, respectively. Cells were washed in FACS buffer (DPBS, 2% FBS), centrifuged and resuspended in 100 μl of the diluted primary BST1 antibody (also diluted in FACS buffer). The antibody-A549 complex was incubated on ice for 60 min and then washed twice with FACS buffer as described above. The cell-antibody pellet was resuspended in 100 μl of the diluted secondary antibody (also diluted in FACS buffer) and incubated on ice for 60 min on ice. The pellet was washed as before and resuspended in 200 μl FACS buffer. The samples were loaded onto the BD FACScanto II flow sytometer and the data analyzed using the BD FACSdiva software.

binding result: binds
B1: BST1_A3 (Fab, V domains shown)
VH: QVQLQQSRAELVMPGASVKMSCKTSGYTFSDYWVHWVRQRPGQGLEWIGAIDGSDTFNDYSQKFKGRATLTVDESSSTVYMQLSSLTSEDSAVYYCARGGLLQYWGQGTTLTVSS
VL: DIQLTQSPASLSASVGETVTITCRASENIYSYLAWYQQKQGKSPQLLVYNTKTLGEGVPSRFSGSGSGTQFSLKINSLQPEDFGSYYCQHHYGTPFTFGSGTKLEIKR
notes: they are whole murine Fab chains: bacterial leader, variable domain and constant domain, with a His tag on the heavy chain

binding result: binds
B2: BST1_A2 (Fab, V domains shown)
VH: QAYLQQSGPELVKAGASVKMSCKASGYSFIEYTINWVKQSHGKSLEWIGNIDPYYGTTYYNQMFTGKATLTVDQSSNTAYMQLKSLTSEDSAVYFCARGSAWFPYWGQGTLVTVSA
VL: DIVMSQSPAIMSASPGEKVTMTCSASSSVTYMYWYQQKPGSSPRLLIYDTSNLASGVPVRFSGSGSGTSYSLTISRMEAEDTATYYCQQWSNYPLTFGAGTKLELKR
notes: they are whole murine Fab chains: bacterial leader, variable domain and constant domain, with a His tag on the heavy chain; also called anti-BST1 monoclonal antibody BST1_A2

binding result: binds
B3: BST1_A1 (Fab, V domains shown)
VH: QVKLQQSGAELVRPGSSVKISCKASGYAFSNSWINWVKQRPGQGLEWIGQIYPGDYDTNYNGKFKGKATLTADYSSSTAYMQLNSLTSEDSAVYFCARGGSIYYGNLGFFDVWGAGTTVTVSS
VL: EMVLTQSPAIMSTSLGERVTMTCTASSRVSSSYLHWYQQKPGSSPKLWIYSTSNLASGVPARFSGSGSGTSYSLTISSMEAEDAATYYCHQYHRSPYTFGGGTKLEIKR
notes: also called anti-BST1 monoclonal antibody BST1_A1
